The experiment has as its target PKD2-mNeonGreen (PKD2-mNG) in cilia (Chlamydomonas). Nature of the experiment: stepwise photobleaching.

A value given as a limit tells only on which side of the number the result lay.

For 1 substance, photobleaching steps per particle and stoichiometry N results are on record in paper PMC7265326.

On to “PKD2-mNeonGreen (PKD2-mNG) in cilia (domain or fragment)”, for which the photobleaching steps per particle turned out to be 2.8 steps and the stoichiometry N was greater than 3.

The term stoichiometry N denotes the number of molecules, sites or subunits per partner or assembly.
